# In patent publication US9567576B2, “Strain expressing FRSA and method for producing ethanol using same” (SOGANG UNIVERSITY RESEARCH FOUNDATION, priority 2012, dated 2017):
# How the values were obtained:
# [1] = test system: CC(=O)C(=O)O; test: FrsA-catalysed pyruvate decarboxylation, ADH/NADH coupled acetaldehyde assay; type: biochemical, Vibrio vulnificus; conditions: other: wild-type FrsA, pH 7.0, 37° C., 1 nM FrsA
# Procedure: FrsA enzymatic analysis was performed in 50 mM sodium phosphate solution (pH 7.0) containing 1 mM DTT and various concentrations of pyruvate. To measure the amount of acetaldehyde produced from pyruvate, 2 mM NADH and 3.7 U of […] was added to the FrsA reaction mixture (8). Cell lysates from wild-type E. coli and frsA mutants (9) were used in the range of 0.005 to 1 mg in amount. The acetaldehyde reaction was initiated by adding FrsA (1 nM) and incubated at 37° C. for 5 min and stopped by adding 50 mM potassium hydrogen phthalate buffer (pH3.0). The residual NADH in the reaction mixture was determined by measuring absorption at 340 nm. For CO2 measurement, FrsA enzyme reaction was performed in 50 mM Tris-HCl buffer (pH 7.0). The amount of carbon dioxide dissolved in the reaction solution was quantified by spectrophotometry after the reaction solution was treated with 10 mM calcium hydroxide (10). Concentrations of the pyruvate and acetaldehyde in the cell lysates and reaction mixtures were determined using Pyruvate Assay Lit (BioVision, USA) and Acetaldehyde UV-method kit (Roche, USA), respectively according to the manufacturer's instruction. To increase the sensitivity of the Acetaldehyde UV-method kit, the reaction mixture was additionally treated with dye (50 ml of 1.0% Tween 20 solution containing 40 mg iodonitrotetrazolium chloride and 10 mg phenazine methosulfate) followed by absorption measurement at 490 nm (11).
# Values of Km and Kcat were calculated as follows. The concentration of reaction products were calculated in the mM unit from the absorption values which were obtained for a total of 1 min for each substrate concentration (S). Then initial reaction rate (Vo) for each concentration of the substrate was determined (here the unit is mM(product)/sec/mg(enzyme)). […] Keat value expressed in the unit of sec^−1 was calculated by changing the unit weight of the enzyme to the concentration in mM in the calculated Vmax (mM(product)/sec/mg(enzyme)).
# [2] = target: Vibrio vulnificus FrsA, wild type, SEQ ID NO: 2, + phospho-IIA^Glc (Vibrio vulnificus, UniProt Q8DF91); test: FrsA pyruvate decarboxylation in the presence of phospho-IIA^Glc; type: biochemical
# Chain of Vibrio vulnificus FrsA, wild type, SEQ ID NO: 2, + phospho-IIA^Glc (Q8DF91 whole entry): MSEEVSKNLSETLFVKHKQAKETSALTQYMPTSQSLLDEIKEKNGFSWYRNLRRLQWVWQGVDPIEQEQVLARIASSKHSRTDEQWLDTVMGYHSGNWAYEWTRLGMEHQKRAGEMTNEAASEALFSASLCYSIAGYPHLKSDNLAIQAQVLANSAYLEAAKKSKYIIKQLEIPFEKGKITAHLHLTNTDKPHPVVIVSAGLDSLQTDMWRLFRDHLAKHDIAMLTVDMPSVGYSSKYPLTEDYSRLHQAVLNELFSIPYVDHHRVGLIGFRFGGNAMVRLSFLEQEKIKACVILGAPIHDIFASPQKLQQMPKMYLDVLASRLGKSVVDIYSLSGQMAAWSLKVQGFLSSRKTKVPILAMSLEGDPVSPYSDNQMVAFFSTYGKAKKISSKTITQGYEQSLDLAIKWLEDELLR
# Chain of Vibrio vulnificus FrsA, wild type, SEQ ID NO: 2, + phospho-IIA^Glc (A0A3Q0L1G8 entry or part of it, further chain): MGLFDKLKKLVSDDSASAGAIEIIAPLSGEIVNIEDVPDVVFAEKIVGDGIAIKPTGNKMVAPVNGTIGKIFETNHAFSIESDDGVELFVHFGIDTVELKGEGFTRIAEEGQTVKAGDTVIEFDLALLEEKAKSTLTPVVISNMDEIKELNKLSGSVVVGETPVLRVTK
# Text: (§1) Genomic DNA from V. vulnificus(3) was used as template and as primers Crrexp-F (5′-[…]-3′(SEQ ID NO: 13); BamHI restriction site is underlined) and Crrexp-R (5′-[…]-′3(SEQ ID NO: 14); PstI restriction site is underlined) are used to amplify crr gene of 522-bp in size encoding full length IIA^Glc. The amplified products were then digested with BamHI and PstI and cloned into a vector pQE30 to obtain pQE-crr. Phosphorylated and non-phosphorylated recombinant IIA^Glc proteins were overexpressed in E. coli JM109 in a medium comprising 1.0 mM phophoenolpyruvate or 1.0% glucose, respectively. […]
# (§2) FrsA enzymatic analysis was performed in 50 mM sodium phosphate solution (pH 7.0) containing 1 mM DTT and various concentrations of pyruvate. […] The residual NADH in the reaction mixture was determined by measuring absorption at 340 nm. […] The amount of carbon dioxide dissolved in the reaction solution was quantified by spectrophotometry after the reaction solution was treated with 10 mM calcium hydroxide (10). Concentrations of the pyruvate and acetaldehyde in the cell lysates and reaction mixtures were determined using Pyruvate Assay Lit (BioVision, USA) and Acetaldehyde UV-method kit (Roche, USA), respectively according to the manufacturer's instruction. […]
# (§3) Values of Km and Kcat were calculated as follows. […]
# [3] = target: Vibrio vulnificus FrsA, wild type, SEQ ID NO: 2, + dephospho-IIA^Glc (Vibrio vulnificus, UniProt Q8DF91); test: FrsA pyruvate decarboxylation in the presence of dephospho-IIA^Glc; type: biochemical
# Chain of Vibrio vulnificus FrsA, wild type, SEQ ID NO: 2, + dephospho-IIA^Glc (A0A3Q0L1G8 entry or part of it): as the sequence (A0A3Q0L1G8 entry or part of it, further chain) above
# Chain of Vibrio vulnificus FrsA, wild type, SEQ ID NO: 2, + dephospho-IIA^Glc (Q8DF91 whole entry): as the sequence (Q8DF91 whole entry) above
# Text: as §1, §2, §3
Molecule,Km [1],kcat [1],kcat/Km [1],Km [2],Km [3]
"Vibrio vulnificus FrsA, wild type, SEQ ID NO: 2 (Vibrio vulnificus CMCP6)",0.39 ± 0.02 mM,1372 ± 11 s⁻¹,3.52e+06 ± 183000 M⁻¹ s⁻¹,–,–
CC(=O)C(=O)O [pyruvate],–,–,–,0.39 ± 0.01 mM,0.39 ± 0.03 mM
